Measured values taken from PMC9363500 (Communications Biology, 2022).

T1: 6×His-FAK KFL_(776–841) (human, UniProt Q05397 776-841, fluorescent label from the NanoTemper His-tag labelling kit (MST, fluorescence anisotropy))
T1 chain: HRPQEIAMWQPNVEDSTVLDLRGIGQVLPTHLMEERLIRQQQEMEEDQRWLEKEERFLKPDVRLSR

T2: FAK KFL 776-841 (Homo sapiens, UniProt Q05397)
T2 chain: T1 chain

B1: MBP–FAK KFL_(776–841) (domain or fragment, human, UniProt Q05397 776-841, looked up)
chain: T1 chain
notes: not shown: MBP, N-terminal, kept
B2: FAK KFL 776-841 (protein)
chain: T1 chain
modifications: not fully specified
B3: 6×His-FAK KFL_(776–841) (domain or fragment, human, UniProt Q05397 776-841, looked up)
chain: {6×His}-HRPQEIAMWQPNVEDSTVLDLRGIGQVLPTHLMEERLIRQQQEMEEDQRWLEKEERFLKPDVRLSR
modifications: also: fluorescent label on His-tag
notes: source: E. coli, purified (nickel column, Superdex 75 SEC); not shown: His6, N-terminal, kept

Experiments:
[1] = target: 6×His–PYK2 KFL_(728–839) (human) (UniProt Q14289); experiment: ITC; 25 °C; 20 mM HEPES pH 7.5, 150 mM NaCl, 2 mM DTT, 1 mM EGTA; CaM (300 µM) injected into PYK2 KFL728–839 (30 µM)
[2] = target: 6×His–PYK2 KFL_(728–839) (human) (UniProt Q14289); experiment: ITC; 25 °C; 20 mM HEPES pH 7.5, 150 mM NaCl, 2 mM DTT, 5 mM Ca2+; CaM (300 µM) injected into KFL constructs in the cell (30 or 50 µM), or FERM domains (500 µM) injected into CaM (50 µM)
6×His-FAK KFL_(776–841) [3] = target: T1, 6×His-FAK KFL_(776–841); experiment: FP
6×His-FAK KFL_(776–841) [4] = target: B3; experiment: fluorescence polarisation; fluorescence anisotropy; labelled 6×His protein at 50 nM, unlabelled MBP-fused protein serially diluted; 20 mM HEPES, 200 mM NaCl, 1 mM DTT, pH 6.5; details: both partners purified
FAK KFL 776-841 = target: T2, FAK KFL 776-841; experiment: MST (self-association)
[5] = target: the molecule itself; experiment: SEC-MALS; Superdex 200; 20 mM HEPES, 200 mM NaCl, 2 mM DTT, pH 6.5 and 7.5; DAWN MALS detector
[6] = target: the molecule itself; experiment: MST; labelled 6×His protein at 50 nM, unlabelled protein serially diluted; 20 mM HEPES, 200 mM NaCl, 1 mM DTT, pH 6.5; dimer to monomers

Molecule: 6×His–CaM (recombinant calmodulin) (from UniProt P0DP23 1-149) (natural protein)
- stoichiometry N [1]: 1
- stoichiometry N [2]: 1

Molecule: B1
- Kd (6×His-FAK KFL_(776–841) [3]): 730 nM
- binding result (6×His-FAK KFL_(776–841) [4]): binds

Molecule: B2
- Kd (FAK KFL 776-841): 848 nM

Molecule: B3
- stoichiometry N [5]: 2
- Kd [6]: ~800 nM
